{"source": "patent US20070004010A1", "about": "“Engineered Enzymes and Their Use for Synthesis of Thioglycosides” (THE UNIVERSITY OF BRITISH COLUMBIA, priority 2002, published 2007)"}
{"system": "not listed separately", "assay": "Saturation mutagenesis at the acid/base position (E171) of Abg: thioligase functionality", "type": "biochemical, Agrobacterium sp."}
{"molecule": "Abg E171G: acid/base position (E171) mutant of the β-glucosidase from Agrobacterium sp. (Abg) (protein, UniProt P12614 1-459, looked up, variant E171G) Beta-glucosidase: MTDPNTLAARFPGDFLFGVATASFQIEGSTKADGRKPSIWDAFCNMPGHVFGRHNGDIACDHYNRWEEDLDLIKEMGVEAYRFSLAWPRIIPDGFGPINEKGLDFYDRLVDGCKARGIKTYATLYHWDLPLTLMGDGGWASRSTAHAFQRYAKTVMARLGDRLDAVATFNGPWCAVWLSHLYGVHAPGERNMEAALAAMHHINLAHGFGVEASRHVAPKVPVGLVLNAHSAIPASDGEADLKAAERAFQFHNGAFFDPVFKGEYPAEMMEALGDRMPVVEAEDLGIISQKLDWWGLNYYTPMRVADDATPGVEFPATMPAPAVSDVKTDIGWEVYAPALHTLVETLYERYDLPECYITENGACYNMGVENGQVNDQPRLDYYAEHLGIVADLIRDGYPMRGYFAWSLMDNFEWAEGYRMRFGLVHVDYQTQVRTVKNSGKWYSALASGFPKGNHGVAKG", "functionality as thioligase": "functionality as thioligases"}
{"molecule": "E171M: acid/base position (E171) mutant of Abg (protein, UniProt P12614 1-459, looked up, variant E171M) Beta-glucosidase: MTDPNTLAARFPGDFLFGVATASFQIEGSTKADGRKPSIWDAFCNMPGHVFGRHNGDIACDHYNRWEEDLDLIKEMGVEAYRFSLAWPRIIPDGFGPINEKGLDFYDRLVDGCKARGIKTYATLYHWDLPLTLMGDGGWASRSTAHAFQRYAKTVMARLGDRLDAVATFNMPWCAVWLSHLYGVHAPGERNMEAALAAMHHINLAHGFGVEASRHVAPKVPVGLVLNAHSAIPASDGEADLKAAERAFQFHNGAFFDPVFKGEYPAEMMEALGDRMPVVEAEDLGIISQKLDWWGLNYYTPMRVADDATPGVEFPATMPAPAVSDVKTDIGWEVYAPALHTLVETLYERYDLPECYITENGACYNMGVENGQVNDQPRLDYYAEHLGIVADLIRDGYPMRGYFAWSLMDNFEWAEGYRMRFGLVHVDYQTQVRTVKNSGKWYSALASGFPKGNHGVAKG", "functionality as thioligase": "functionality as thioligases"}
{"molecule": "E171T: acid/base position (E171) mutant of Abg (protein, UniProt P12614 1-459, looked up, variant E171T) Beta-glucosidase: MTDPNTLAARFPGDFLFGVATASFQIEGSTKADGRKPSIWDAFCNMPGHVFGRHNGDIACDHYNRWEEDLDLIKEMGVEAYRFSLAWPRIIPDGFGPINEKGLDFYDRLVDGCKARGIKTYATLYHWDLPLTLMGDGGWASRSTAHAFQRYAKTVMARLGDRLDAVATFNTPWCAVWLSHLYGVHAPGERNMEAALAAMHHINLAHGFGVEASRHVAPKVPVGLVLNAHSAIPASDGEADLKAAERAFQFHNGAFFDPVFKGEYPAEMMEALGDRMPVVEAEDLGIISQKLDWWGLNYYTPMRVADDATPGVEFPATMPAPAVSDVKTDIGWEVYAPALHTLVETLYERYDLPECYITENGACYNMGVENGQVNDQPRLDYYAEHLGIVADLIRDGYPMRGYFAWSLMDNFEWAEGYRMRFGLVHVDYQTQVRTVKNSGKWYSALASGFPKGNHGVAKG", "functionality as thioligase": "functionality as thioligases"}
{"molecule": "E171I: acid/base position (E171) mutant of Abg (protein, UniProt P12614 1-459, looked up, variant E171I) Beta-glucosidase: MTDPNTLAARFPGDFLFGVATASFQIEGSTKADGRKPSIWDAFCNMPGHVFGRHNGDIACDHYNRWEEDLDLIKEMGVEAYRFSLAWPRIIPDGFGPINEKGLDFYDRLVDGCKARGIKTYATLYHWDLPLTLMGDGGWASRSTAHAFQRYAKTVMARLGDRLDAVATFNIPWCAVWLSHLYGVHAPGERNMEAALAAMHHINLAHGFGVEASRHVAPKVPVGLVLNAHSAIPASDGEADLKAAERAFQFHNGAFFDPVFKGEYPAEMMEALGDRMPVVEAEDLGIISQKLDWWGLNYYTPMRVADDATPGVEFPATMPAPAVSDVKTDIGWEVYAPALHTLVETLYERYDLPECYITENGACYNMGVENGQVNDQPRLDYYAEHLGIVADLIRDGYPMRGYFAWSLMDNFEWAEGYRMRFGLVHVDYQTQVRTVKNSGKWYSALASGFPKGNHGVAKG", "functionality as thioligase": "functionality as thioligases"}
{"molecule": "Abg E171Q: acid/base position (E171) mutant of the β-glucosidase from Agrobacterium sp. (Abg) (protein, UniProt P12614 1-459, looked up, variant E171Q) Beta-glucosidase: MTDPNTLAARFPGDFLFGVATASFQIEGSTKADGRKPSIWDAFCNMPGHVFGRHNGDIACDHYNRWEEDLDLIKEMGVEAYRFSLAWPRIIPDGFGPINEKGLDFYDRLVDGCKARGIKTYATLYHWDLPLTLMGDGGWASRSTAHAFQRYAKTVMARLGDRLDAVATFNQPWCAVWLSHLYGVHAPGERNMEAALAAMHHINLAHGFGVEASRHVAPKVPVGLVLNAHSAIPASDGEADLKAAERAFQFHNGAFFDPVFKGEYPAEMMEALGDRMPVVEAEDLGIISQKLDWWGLNYYTPMRVADDATPGVEFPATMPAPAVSDVKTDIGWEVYAPALHTLVETLYERYDLPECYITENGACYNMGVENGQVNDQPRLDYYAEHLGIVADLIRDGYPMRGYFAWSLMDNFEWAEGYRMRFGLVHVDYQTQVRTVKNSGKWYSALASGFPKGNHGVAKG", "functionality as thioligase": "functionality as thioligases"}
{"molecule": "E171S: acid/base position (E171) mutant of Abg (protein, UniProt P12614 1-459, looked up, variant E171S) Beta-glucosidase: MTDPNTLAARFPGDFLFGVATASFQIEGSTKADGRKPSIWDAFCNMPGHVFGRHNGDIACDHYNRWEEDLDLIKEMGVEAYRFSLAWPRIIPDGFGPINEKGLDFYDRLVDGCKARGIKTYATLYHWDLPLTLMGDGGWASRSTAHAFQRYAKTVMARLGDRLDAVATFNSPWCAVWLSHLYGVHAPGERNMEAALAAMHHINLAHGFGVEASRHVAPKVPVGLVLNAHSAIPASDGEADLKAAERAFQFHNGAFFDPVFKGEYPAEMMEALGDRMPVVEAEDLGIISQKLDWWGLNYYTPMRVADDATPGVEFPATMPAPAVSDVKTDIGWEVYAPALHTLVETLYERYDLPECYITENGACYNMGVENGQVNDQPRLDYYAEHLGIVADLIRDGYPMRGYFAWSLMDNFEWAEGYRMRFGLVHVDYQTQVRTVKNSGKWYSALASGFPKGNHGVAKG", "functionality as thioligase": "functionality as thioligases"}
{"molecule": "E171L: acid/base position (E171) mutant of Abg (protein, UniProt P12614 1-459, looked up, variant E171L) Beta-glucosidase: MTDPNTLAARFPGDFLFGVATASFQIEGSTKADGRKPSIWDAFCNMPGHVFGRHNGDIACDHYNRWEEDLDLIKEMGVEAYRFSLAWPRIIPDGFGPINEKGLDFYDRLVDGCKARGIKTYATLYHWDLPLTLMGDGGWASRSTAHAFQRYAKTVMARLGDRLDAVATFNLPWCAVWLSHLYGVHAPGERNMEAALAAMHHINLAHGFGVEASRHVAPKVPVGLVLNAHSAIPASDGEADLKAAERAFQFHNGAFFDPVFKGEYPAEMMEALGDRMPVVEAEDLGIISQKLDWWGLNYYTPMRVADDATPGVEFPATMPAPAVSDVKTDIGWEVYAPALHTLVETLYERYDLPECYITENGACYNMGVENGQVNDQPRLDYYAEHLGIVADLIRDGYPMRGYFAWSLMDNFEWAEGYRMRFGLVHVDYQTQVRTVKNSGKWYSALASGFPKGNHGVAKG", "functionality as thioligase": "functionality as thioligases"}
{"molecule": "E171N: acid/base position (E171) mutant of Abg (protein, UniProt P12614 1-459, looked up, variant E171N) Beta-glucosidase: MTDPNTLAARFPGDFLFGVATASFQIEGSTKADGRKPSIWDAFCNMPGHVFGRHNGDIACDHYNRWEEDLDLIKEMGVEAYRFSLAWPRIIPDGFGPINEKGLDFYDRLVDGCKARGIKTYATLYHWDLPLTLMGDGGWASRSTAHAFQRYAKTVMARLGDRLDAVATFNNPWCAVWLSHLYGVHAPGERNMEAALAAMHHINLAHGFGVEASRHVAPKVPVGLVLNAHSAIPASDGEADLKAAERAFQFHNGAFFDPVFKGEYPAEMMEALGDRMPVVEAEDLGIISQKLDWWGLNYYTPMRVADDATPGVEFPATMPAPAVSDVKTDIGWEVYAPALHTLVETLYERYDLPECYITENGACYNMGVENGQVNDQPRLDYYAEHLGIVADLIRDGYPMRGYFAWSLMDNFEWAEGYRMRFGLVHVDYQTQVRTVKNSGKWYSALASGFPKGNHGVAKG", "functionality as thioligase": "functionality as thioligases"}
{"molecule": "E171F: acid/base position (E171) mutant of Abg (protein, UniProt P12614 1-459, looked up, variant E171F) Beta-glucosidase: MTDPNTLAARFPGDFLFGVATASFQIEGSTKADGRKPSIWDAFCNMPGHVFGRHNGDIACDHYNRWEEDLDLIKEMGVEAYRFSLAWPRIIPDGFGPINEKGLDFYDRLVDGCKARGIKTYATLYHWDLPLTLMGDGGWASRSTAHAFQRYAKTVMARLGDRLDAVATFNFPWCAVWLSHLYGVHAPGERNMEAALAAMHHINLAHGFGVEASRHVAPKVPVGLVLNAHSAIPASDGEADLKAAERAFQFHNGAFFDPVFKGEYPAEMMEALGDRMPVVEAEDLGIISQKLDWWGLNYYTPMRVADDATPGVEFPATMPAPAVSDVKTDIGWEVYAPALHTLVETLYERYDLPECYITENGACYNMGVENGQVNDQPRLDYYAEHLGIVADLIRDGYPMRGYFAWSLMDNFEWAEGYRMRFGLVHVDYQTQVRTVKNSGKWYSALASGFPKGNHGVAKG", "functionality as thioligase": "functionality as thioligases"}
{"target": "T1, Cex E127A (Cellulomonas fimi, UniProt P07986, E168A)", "T1 sequence (P07986 42-484 E168A)": "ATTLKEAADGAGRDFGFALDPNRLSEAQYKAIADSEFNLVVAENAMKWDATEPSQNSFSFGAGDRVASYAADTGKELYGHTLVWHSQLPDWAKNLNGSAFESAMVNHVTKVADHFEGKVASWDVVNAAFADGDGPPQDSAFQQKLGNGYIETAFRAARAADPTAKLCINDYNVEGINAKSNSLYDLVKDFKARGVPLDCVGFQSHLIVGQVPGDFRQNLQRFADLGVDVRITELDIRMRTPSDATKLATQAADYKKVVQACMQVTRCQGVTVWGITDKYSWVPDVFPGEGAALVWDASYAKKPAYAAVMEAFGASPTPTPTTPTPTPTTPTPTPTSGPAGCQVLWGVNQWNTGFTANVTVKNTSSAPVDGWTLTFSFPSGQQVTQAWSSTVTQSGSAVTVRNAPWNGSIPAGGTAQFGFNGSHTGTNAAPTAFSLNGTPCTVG", "assay": "Functional donors and acceptors for Cex E127A", "type": "biochemical"}
{"molecule": "OC[C@H]1O[C@@H](O[C@H]2[C@H](O)[C@@H](O)C(O)O[C@@H]2CO)[C@H](O)[C@@H](O)[C@@H]1S", "note": "(stereo partly shown) [4′-deoxy-4′-thio-cellobiose]", "acceptor function": "Functional acceptors"}
{"molecule": "O=[N+]([O-])c1ccc(O[C@@H]2O[C@H](CO)[C@@H](O[C@@H]3O[C@H](CO)[C@@H](O)[C@H](O)[C@H]3O)[C@H](O)[C@H]2O)c([N+](=O)[O-])c1", "note": "[DNP β-cellobioside]", "donor function": "Functional donors"}
{"molecule": "O=[N+]([O-])c1ccc(O[C@@H]2O[C@H](CO)[C@@H](O[C@@H]3O[C@H](CO)[C@@H](S)[C@H](O)[C@H]3O)[C@H](O)[C@H]2O)cc1", "note": "[pNP 4′-deoxy4′-thio-β-cellobioside, pNP 4′-deoxy-4′-thio-β-cellobioside]", "acceptor function": "Functional acceptors", "donor function": "Functional donors"}
